Laboratory results reported in publication PMC9305271.

Key:
[1] = molecular target: bACE2-Ra-eGFP, full length, on BHK-21 cells (Rhinolophus affinis (intermediate horseshoe bat)); test: flow cytometry on cells
[2] = molecular target: intermediate horseshoe bat ACE2 (bACE2-Ra), peptide domain, residues 19-615 (Rhinolophus affinis (intermediate horseshoe bat)); test: SPR
[3] = molecular target: intermediate horseshoe bat ACE2 (bACE2-Ra), peptidase domain, residues 19-615 (Rhinolophus affinis (intermediate horseshoe bat)); test: SPR

Substance | double-positive rate [1] | Kd [2] | Kd [3]
SARS-CoV-2 receptor-binding domain (RBD) (from UniProt P0DTC2 319-541) (domain or fragment) | 31.6% | 448 nM | –
SARS-CoV-2 receptor-binding domain (prototype), residues 319-541 (from UniProt P0DTC2 319-541) (domain or fragment) | – | – | 547 nM
